IntAct's records for PubMed 10861283

B1: Merlin (Homo sapiens), P35240-3 (parent)
chain: MAGAIASRMSFSSLKRKQPKTFTVRIVTMDAEMEFNCEMKWKGKDLFDLVCRTLGLRETWFFGLQYTIKDTVAWLKMDKKVLDHDVSKEEPVTFHFLAKFYPENAEEELVQEITQHLFFLQVKKQILDEKIYCPPEASVLLASYAVQAKYGDYDPSVHKRGFLAQEELLPKRVINLYQMTPEMWEERITAWYAEHRGRARDEAEMEYLKIAQDLEMYGVNYFAIRNKKGTELLLGVDALGLHIYDPENRLTPKISFPWNEIRNISYSDKEFTIKPLDKKIDVFKFNSSKLRVNKLILQLCIGNHDLFMRRRKADSLEVQQMKAQAREEKARKQMERQRLAREKQMREEAERTRDELERRLLQMKEEATMANEALMRSEETADLLAEKAQITEEEAKLLAQKAAEAEQEMQRIKATAIRTEEEKRLMEQKVLEAEVLALKMAEESERRAKEADQLKQDLQEAREAERRAKQKLLEIATKPTYPPMNPIPAPLPPDIPSFNLIGDSLSFDFKDTDMKRLSMEIEKEKVEYMEKSKHLQEQLNELKTEIEALKLKERETALDILHNENSDRGGSSKHNTIKKPQAQGRRPICI

Key:
[1] = variants of: B1; details: with HGS
[2] = variants of: B1; details: with HGS

| Variant | effect of a mutation on the interaction [1] | effect of a mutation on the interaction [2] |
| --- | --- | --- |
| MAGAIASRMSFSSLKRKQPKTFTVRIVTMDAEMEFNCEMKWKGKDLFDLVCRTLGLRETWFFGLQYTIKDTVAWLKMDKKVLDHDVSKEEPVTFHFLAKFYPENAEEELVQEITQHLFFLQVKKQILDEKIYCPPEASVLLASYAVQAKYGDYDPSVHKRGFLAQEELLPKRVINLYQMTPEMWEERITAWYAEHRGRARDEAEMEYLKIAQDLEMYGVNYFAIRNKKGTELLLGVDALGLHIYDPENRLTPKISFPWNEIRNISYSDKEFTIKPLDKKIDVFKFNSSKLRVNKLILQLCIGNHDLFMRRRKADSLEVQQMKAQAREEKARKQMERQRLAREKQMREEAERTRDELERRPLQMKEEATMANEALMRSEETADLLAEKAQITEEEAKLLAQKAAEAEQEMQRIKATAIRTEEEKRLMEQKVLEAEVLALKMAEESERRAKEADQLKQDLQEAREAERRAKQKLLEIATKPTYPPMNPIPAPLPPDIPSFNLIGDSLSFDFKDTDMKRLSMEIEKEKVEYMEKSKHLQEQLNELKTEIEALKLKERETALDILHNENSDRGGSSKHNTIKKPQAQGRRPICI [L360P] | decreasing interaction strength | decreasing interaction strength |
| MAGAIASRMSFSSLKRKQPKTFTVRIVTMDAEMEFNCEMKWKGKDLFDLVCRTLGLRETWFFGLQYTIKDTVAWLKMDKKVLDHDVSKEEPVTFHFLAKFYPENAEEELVQEITQHLFFLQVKKQILDEKIYCPPEASVLLASYAVQAKYGDYDPSVHKRGFLAQEELLPKRVINLYQMTPEMWEERITAWYAEHRGRARDEAEMEYLKIAQDLEMYGVNYFAIRNKKGTELLLGVDALGLHIYDPENRLTPKISFPWNEIRNISYSDKEFTIKPLDKKIDVFKFNSSKLRVNKLILQLCIGNHDLFMRRRKADSLEVQQMKAQAREEKARKQMERQRLAREKQMREEAERTRDELERRLLQMKEEATMANEALMRSEETADLLAEKAQITEEEAKLLAQKAAEAEQEMQRIKATAIRTEEEKRLMEQKVLEAEVLALKMAEESERRAKEADQLKQDLQEAREAERRAKQKLLEIATKPTYPPMNPIPAPLPPDIPSFNLIGDSLSFDFKDTDMKRLSMEIEKEKVEYMEKSKHPQEQLNELKTEIEALKLKERETALDILHNENSDRGGSSKHNTIKKPQAQGRRPICI [L535P] | decreasing interaction strength | decreasing interaction strength |
| MAGAIASRMSFSSLKRKQPKTFTVRIVTMDAEMEFNCEMKWKGKDRFDLVCRTLGLRETWFFGLQYTIKDTVAWLKMDKKVLDHDVSKEEPVTFHFLAKFYPENAEEELVQEITQHLFFLQVKKQILDEKIYCPPEASVLLASYAVQAKYGDYDPSVHKRGFLAQEELLPKRVINLYQMTPEMWEERITAWYAEHRGRARDEAEMEYLKIAQDLEMYGVNYFAIRNKKGTELLLGVDALGLHIYDPENRLTPKISFPWNEIRNISYSDKEFTIKPLDKKIDVFKFNSSKLRVNKLILQLCIGNHDLFMRRRKADSLEVQQMKAQAREEKARKQMERQRLAREKQMREEAERTRDELERRLLQMKEEATMANEALMRSEETADLLAEKAQITEEEAKLLAQKAAEAEQEMQRIKATAIRTEEEKRLMEQKVLEAEVLALKMAEESERRAKEADQLKQDLQEAREAERRAKQKLLEIATKPTYPPMNPIPAPLPPDIPSFNLIGDSLSFDFKDTDMKRLSMEIEKEKVEYMEKSKHLQEQLNELKTEIEALKLKERETALDILHNENSDRGGSSKHNTIKKPQAQGRRPICI [L46R] | decreasing interaction strength | decreasing interaction strength |
| MAGAIASRMSFSSLKRKQPKTFTVRIVTMDAEMEFNCEMKWKGKDLFDLVCRTLGLRETWFFGLQYTIKDTVAWLKMDKKVLDHDVSKEEPVTFHFLAKFYPENAEEELVQEITQHLFFLQVKKQILDEKIYCPPEASVLLASYAVQAKYGDYDPSVHKRGFLAQEELLPKRVINLYQMTPEMWEERITAWYAEHRGRARDEAEMEYLKIAQDLEMYGVNYFAIRNKKGTELLLGVDALGLHIYDPENRLTPKISFPWNEIRNISYSDKEFTIKPLDKKIDVFKFNSSKLRVNKLILQLCIGNHDLFMRRRKADSLEVQQMKAQAREEKARKQMERQRLAREKQMREEAERTRDELERRLLQMKEEATMANEALMRSEETADLLAEKAQITEEEAKLLAQKAAEAEQEMQRIKATAIRTEEEKRLMEQKVLEAEVLALKMAEESERRAKEADQLKQDLQEAREAERRAKQKLLEIATKPTYPPMNPIPAPLPPDIPSFNLIGDSLSFDFKDTDMKRLSMEIEKEKVEYMEKSKHLQEPLNELKTEIEALKLKERETALDILHNENSDRGGSSKHNTIKKPQAQGRRPICI [Q538P] | decreasing interaction strength | decreasing interaction strength |
